Data from the DeepSol protein solubility set.

experiment: soluble on expression in E. coli; label from the status in PepcDB or PDB records

Row | Sequence | soluble on expression in E. coli
1 | MIVSAIAANALLESVTKFHCGVIYDYSTAEYVSYRPSDFGAYLDALEAEVARGGLIVFHNGHKYDVPALTKLAKLQLNREFHLPRENCIDTLVLSRLIHSNLKDTDMGLLRSGKLPGKRFGSHALEAWGYRLGEMKGEYKDDFKRMLEEQGEEYVDGMEWWNFNEEMMDYNVQDVVVTKALLEKLLSDKHYFPPEIDFTDVGYTTFWSESLEAVDIEHRAAWLLAKQERNGFPFDTKAIEELYVELAARRSELLRKLTETFGSWYQPKGGTEMFCHPRTGKPLPKYPRIKTPKVGGIFKKPKNKAQREGREPCELDTREYVAGAPYTPVEHVVFNPSSRDHIQKKLQEAGWVPTKYTDKGAPVVDDEVLEGVRVDDPEKQAAIDLIKEYLMIQKRIGQSAEGDKAWLRYVAEDGKIHGSVNPNGAVTGRATHAFPNLAQIPGVRSPYGEQCRAAFGAEHHLDGITGKPWVQAGIDASGLELRCLAHFMARFDNGEYAHEILNGDIHTKNQIAAELPTRDNAKTFIYGFLYGAGDEKIGQIVGAGKERGKELKKKFLENTPAIAALRESIQQTLVESSQWVAGEQQVKWKRRWIKGLDGRKVHVRSPHAALNTLLQSAGALICKLWIIKTEEMLVEKGLKHGWDGDFAYMAWVHDEIQVGCRTEEIAQVVIETAQEAMRWVGDHWNFRCLLDTEGKMGPNWAICH | soluble
2 | MRPARALIDLQALRHNYQLAREVTGAKALAVIKADAYGHGAVRCAQALEAEADGFAVACIEEALELRAAGIRAPILLLEGFFEADELPLIVEHDFWCVVHSLWQLDAIEQARLAKPIHVWLKLDSGMHRVGLHPNDYKAAYQRLQASANVAKIVLMSHFARADELDCTRSVEQVAVFLGARADLTAEISLRNSPAVLGWPRVPSDWVRPGLMLYGSSPFDEPQATASRLQPVMTLESKVICVRELPAGEPVGYGARFITPKPMRIGVVAMGYADGYPRQAPTGTPVFVDGVRSQLLGRVSMDMLCIDLTDVPQAGLGSTVELWGKNILASEVATAADTIPYQIFCNLKRVPRLYSGN | soluble
3 | MGNKLFVLDLGEIRVDENFIIANSTFVTPQKPTVSSRLIDIPVSAYLIQCTDATVLYDTGCHPECMGTNGRWPAQSQLNAPYIGASECNLPERLRQLGLSPDDISTVVLSHLHNDHAGCVEYFGKSRLIAHEDEFATAVRYFATGDHSSPYIVKDIEAWLATPRNWDLVGRDERERELAPGVNLLNFGTGHASGMLGLAVRLEKQPGFLLVSDACYTATNYGPPARRAGVLHDTIGYDRTVSHIRQYAESRSLTVLFGHDREQFASLIKSTDGFYE | soluble
4 | MVEMTRIKHVAFLNPQGNFDPADSYWTEHPDFGGQLVYVKEVSLALAEMGVQVDIITRRIKDENWPEFSGEIDYYQETNKVRIVRIPFGGDKFLPKEELWPYLHEYVNKIINFYREEGKFPQVVTTHYGDGGLAGVLLKNIKGLPFTFTGHSLGAQKMEKLNVNTSNFKEMDERFKFHRRIIAERLTMSYADKIIVSTSQERFGQYSHDLYRGAVNVEDDDKFSVIPPGVNTRVFDGEYGDKIKAKITKYLERDLGSERMELPAIIASSRLDQKKNHYGLVEAYVQNKELQDKANLVLTLRGIENPFEDYSRAGQEEKEILGKIIELIDNNDCRGKVSMFPLNSQQELAGCYAYLASKGSVFALTSFYEPFGLAPVEAMASGLPAVVTRNGGPAEILDGGKYGVLVDPEDPEDIARGLLKAFESEETWSAYQEKGKQRVEERYTWQETARGYLEVIQEIADRKDEEDEGGSLNIPDYFTNPGASNDEKLLDTFNKLWKE | soluble
5 | MQSRWNDTEAETFAAEARARGEPAELGLRVYSSRLIGQDPDLVLHGGGNTSVKIPSPEGMLIHVKGSGWDLGDIEAPGLPAMHLAPLLETRDVPQMSDEEMVALLRAHLLDPAAPTPSVEALLHAYMPQAFVDHTHATAILALADQADMEPVVAELFGGRVGWVPYVMPGYALSHACREAFARDPSVEGLWLEQHGLFTFAETARESYERMIGFVTMAEEHLAARGVPLPGPEANDGTAPERLAADLRAALAARGALGADPSLDFRSSPSIRSYLGRADLPELARRGTATPDHVIRLKPFPMLLEPTAGPAEIEAALDAFEAEYRAYFDRNAPNASEAKIMLDPLPRVVLVPGLGGWGVGANGKAARIAGDLLEQTSRVVNAAETYRRFTPISEGDLFDMEYWSLEQAKLRKA | not soluble
6 | MVMEYLVLEKRLKRLREVLEKRQKDLIVFADNVKNEHNFSAIVRTCDAVGVLYLYYYHAEGKKAKINEGITQGSHKWVFIEKVDNPVQKLLEFKNRGFQIVATWLSKESVNFREVDYTKPTVLVVGNELQGVSPEIVEIADKKIVIPMYGMAQSLNVSVATGIILYEAQRQREEKGMYSRPSLSEEEIQKILKKWAYEDVIKERKRTLSTS | soluble
7 | MRVRNRKGATELLEANPQYVVLNPLEAKAKWRDLFGNDNPIHVEVGSGKGAFVSGMAKQNPDINYIGIDIQKSVLSYALDKVLEVGVPNIKLLWVDGSDLTDYFEDGEIDRLYLNFSDPWPKKRHEKRRLTYKTFLDTFKRILPENGEIHFKTDNRGLFEYSLVSFSQYGMKLNGVWLDLHASDFEGNVMTEYEQKFSNKGQVIYRVEAEF | soluble
8 | GMRVDKHEVRVGELAAGQPLSLPVYRFKGKGAGPSVYIQANVHGAEVQGNAVIYQLMKLLEHYELLGDISLVPLANPLGINQKSGEFTLGRFDPITGVNWNREYLDHGFNIEVWYQEHSHLDDDTLITAFRATLVEECARRLNNPWGVTTGHRLAVTLQSMAHRADIVLDLHTGPKSCKHLYCPEYERSAAQYFSIPYTLLIPNSFGGAMDEAAFVPWWTLAEVASSHGRELGVRVSALTLELGSQERIDLDDALEDAEGILAYLSHRGVIAETVLPKPMKRYGCFLKNYRKFHAPKAGMVEYLGKVGVPMKATDPLVNLLRLDLYGTGEELTVLRLPEDGVPILHFASASVHQGTELYKVMTKVFEL | soluble
9 | MTNDTNITNDKDINANIAHDDHFNDSIVNEVILEDMKKNRIDHMKYLPDMEVLDSDIMDRVVAEMDAYDYDQYTAADVRAALSHEYRTLEDFKALLSPAAQPFIEEIAQAAQLETRKHFGNSVCMFTPLYISNYCENYCIYCGFNCHNKINRAKLNASEIEKEMAAIAKTGLQEILILTGESKKMSDVEYIGEACKIARKYFKVIGLEVYPMNSDEYAYLHECGADYVTVFQETYNSDKYETLHLAGHKRIFPYRVNAQERALKGGMRGVGFAALLGLDDFRKDALATGYHAYLLQKKYPRAEIAFSCPRLCPIINNDRINPKDVHETQLLQVVCAYRLFMPFASITISTREVARVRDNLVNIAATKISAGVSTGIGSHVDDIEDKGDDQFEISDGRSVDEVFNALLDNGLQPVMSDYIYV | not soluble
10 | MGFDLDVEKKKENRNIPQANNLKIKVIGVGGAGNNAINRMIEIGIHGVEFVAVNTDLQVLEASNADVKIQIGENITRGLGAGGRPEIGEQAALESEEKIREVLQDTHMVFITAGFGGGTGTGASPVIAKIAKEMGILTVAIVTTPFYFEGPERLKKAIEGLKKLRKHVDTLIKISNNKLMEELPRDVKIKDAFLKADETLHQGVKGISELITKRGYIRLTSRFARIESVMKDAGAAILGIGVGKGEHRAREAAKKAMESKLIEHPVENASSIVFNITAPSNIRMEEVHEAAMIIRQNSSEDADVKFGLIFDDEVPDDEIRVIFIATRFPDEDKILFPEGDIPAIYRYGLEGLL | soluble
11 | MTNQPTEIAIVGGGMVGGALALGLAQHGFSVTVIEHAEPAPFVADSQPDVRISAISAASVSLLKGLGVWDAVQAMRCHPYRRLETWEWETAHVVFDAAELKLPLLGYMVENTVLQQALWQALEAHPKVTLRVPTSLIALHRDNDLQELELKGGETIRAKLVIGADGANSQVRQMAGIGVHAWQYAQSCMLISVQCENDPGDSTWQQFTPDGPRAFLPLFDNWASLVWYDSPTRIRQLQNMNMAQLQAEIAKHFPSRLGYVTPLAAGAFPLTRRHALQYVQPGLALVGDAAHTIHPLAGQGVNLGYRDVDALIDVLVNARSYGEAWASYPVLKRYQMRRMADNFIMQSGMDLFYAGFSNNLPPLRFVRNLGLMAAERAGVLKRQALKYALGLLEHHHHHH | not soluble
12 | RDHIILIGWNEKTNRLLKDLQLGAPSKTVVLIDESLTEGPLIENVHFIRGHAADDGTLKRANITEAESVMITADQYKSETDADMLSVLTLLSVKGLNPLAYCIVEILTDRFVTNAERAGANQIIGTSEFISRAMLQHYQVKLR | not soluble
13 | MTGALNQAQKTPWRYGFLNLMRRVDAQLCDTPAGSIWQPRMEKFRLGQTPTMTFAPREIAQVSWQDGRLHLSLYSLGLWGPNGPLPLHYTELALNRSESRHDPTLVHFSNIFHHRWLTQFWQAWRSAQSAGGGLDKPEHDRFAFYIASLSGQDLRESAESPLSDHVRLAASAHLVRESRNPDGLAATLAHYFSVPFAVKEFALHWITVANDEITRLGTPAQSSVLGNGALIGQAVPDMQYKFRLIIGPLTLEDYLRFLPGGNNLPVLTELVRTFIGFEYCWEIELQLKPHAAPPAVIGGAQRLGWTAWAGKAMHDRPVTGMIFEPEHGLTH | not soluble
14 | MLINARISVRSYPKYQRFSFFYALLFKRIDLILAQSKEDKKRLLNLGAKKVVDFLNIKRFSKPVITSFYPKNPSALNIVLASTHEGEEELGLKAFLELKKTFKNARLIVVPRHPERFKSVQDLLQNTLKTTPFSWECFSSKGFVECDILLVDSLGELNNFYQIADIVILGGSFVKMGGHNPLEPAFFNARLITGEYIFNQVALFELVKPYKIVPKEDLLDALLDYKNLGMARFLENGHDLNELLAFIKHLEHHHHHH | soluble
15 | QLRDFSSIIQTCSGNIQRISQATAQIKNLMSQLGTKQDSSKLQENLQQLQHSTNQLAKETNELLKELGSLPLPLSTSEQRQQRLQKERLMNDFSAALNNFQAVQRRVSEKEKESIAR | soluble
16 | MLSSLRRVVPSLPRGSRSLTSQQIFDREKKFGCHNYKPLPVALSKGEGCFVWDVEGKKYFDFLAAYSAVNQGHCHPKLLKVVQEQASTLTLTSRAFYNNVLGEYEEYVTKLFKYDKVLPMNTGVEACESAVKLARRWAYDVKGVKDNEAVVVFAENNFWGRSIAAISASTDPDSFARFGPFVPGFKTVPYNNLKAVEDAIKDKNVAAFMVEPIQGEAGVVLPDPGYLKGVSDLCKKYNVLFITDEVQSGLGRSGKLLAHYHDNVRPDIVVLGKALSGGFYPVSAVLCDDNVMMNIKPGEHGSTYGGNPLACKVAIAALEILQEEKLVENSAVMGDLLMSKLKTLPKDIVSTVRGKGLFCAIVINKKYDAWKVCLKLKENGLLAKNTHGDIIRFAPPLCINKEQVEQAADIIIKTVTDFAKQN | not soluble
17 | MSLSFDVVFVGHRRGEVRSDNAMLGLLCDAAFDELTRPDVVIFPGGIGTRTLIHDQTVLDWVREAHRHTLLTTSVCTGGLVLAAAGLLNGLTATTHWRVQDLFNSLGARYVPQRVVEHLPERVITAAGVSSGIDMGLRLVELLVSREAAEASQLMIEYDPQPPVDAGSLAKASPATHRLALEFYQHREGHHHHHH | not soluble
18 | MEQYHKIVLTGSNAETMLIKNIEPVAVKFINNYKGFFYVFKYSKDFPIIDVYINNKIVTENQLNKILQNSGAKYKIYKNSIFNETQGNFGMLGDKYLAEFFKKTNEISLNILNQNFESYNKKIEFALEIMLISAHYNYDSIKKGYLSYASHVNGFFTRWKDPNKIRDIFHKNYLNNKEYLESKVSEIIDNNNRSSLSELSDIITEMKKEMTTDIEKGNLHVFNIELLQKPGERDFLEKSQFHKTILNNPDFSNFMNKDINFLGSRLITVFTYLLIRNLGIQNKDRYLLCYYIYKIIEEKYNIDTLELIRDFGKGRDNNVEDLQRY | not soluble
